We go through one substance from patent US20130274129.

This data set has as its system AvrBs3-KRAB. Nature of the data set: cell_activity. As to conditions: two copies of TAL site, LacZ reporter, 293FT; around 40% with one copy.

“AvrBs3 TAL binding site in CMV promoter reporter” returned an activity of 70 % repression.
